In article PMC10213043, “Different viral effectors suppress hormone-mediated antiviral immunity of rice coordinated by OsNPR1” (Nature Communications, 2023):

Molecular target: the molecule itself
Assay: pull-down; purified proteins, 5 µg GST-OsNPR1 with 5 µg MBP-HIS-OsNPR1 or 5 µg MBP-HIS-OsCUL3a, plus 1 or 10 µg MBP-HIS-P2 (or 10 µg MBP-HIS); held on glutathione sepharose beads, 4 °C, 2 h, washed with 1x PBS

B1: GST-OsNPR1 (natural protein)
chain: MEPPTSHVTNAFSDSDSASVEEGGADADADVEALRRLSDNLAAAFRSPEDFAFLADARIAVPGGGGGGGDLLVHRCVLSARSPFLRGVFARRAAAAAGGGGEDGGERLELRELLGGGGEEVEVGYEALRLVLDYLYSGRVGDLPKAACLCVDEDCAHVGCHPAVAFMAQVLFAASTFQVAELTNLFQRRLLDVLDKVEVDNLLLILSVANLCNKSCMKLLERCLDMVVRSNLDMITLEKSLPPDVIKQIIDARLSLGLISPENKGFPNKHVRRIHRALDSDDVELVRMLLTEGQTNLDDAFALHYAVEHCDSKITTELLDLALADVNHRNPRGYTVLHIAARRREPKIIVSLLTKGARPADVTFDGRKAVQISKRLTKQGDYFGVTEEGKPSPKDRLCIEILEQAERRDPQLGEASVSLAMAGESLRGRLLYLENRVALARIMFPMEARVAMDIAQVDGTLEFNLGSGANPPPERQRTTVDLNESPFIMKEEHLARMTALSKTVELGKRFFPRCSNVLDKIMDDETDPVSLGRDTSAEKRKRFHDLQDVLQKAFHEDKEENDRSGLSSSSSSTSIGAIRPRR
notes: also called second copy in the self-association pull-down: MBP-HIS-OsNPR1; MBP-OsNPR1; source: E. coli Rosetta (DE3), purified
binding result: binds
